Data as given in patent publication US20220348667A1 (LUXEMBOURG INSTITUTE OF HEALTH LIH, published 2022).

T1: human ACKR2 stably expressed on HEK293T cells (HEK.ACKR2) (human, UniProt O00590 1-384)
T1 construct: whole, on cells; also called hACKR2; HEK.hACKR2
T1 sequence (looked up): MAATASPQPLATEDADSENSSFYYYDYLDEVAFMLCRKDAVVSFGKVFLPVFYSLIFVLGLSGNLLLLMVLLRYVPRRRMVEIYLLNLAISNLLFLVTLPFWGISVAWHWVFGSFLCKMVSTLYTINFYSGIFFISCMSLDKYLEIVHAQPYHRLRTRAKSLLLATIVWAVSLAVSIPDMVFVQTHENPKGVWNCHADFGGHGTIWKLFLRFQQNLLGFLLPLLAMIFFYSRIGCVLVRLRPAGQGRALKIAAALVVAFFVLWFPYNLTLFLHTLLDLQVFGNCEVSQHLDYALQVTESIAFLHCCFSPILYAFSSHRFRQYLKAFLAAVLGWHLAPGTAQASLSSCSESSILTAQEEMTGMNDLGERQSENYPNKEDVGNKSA


Columns and labels:
[1] = target: murine ACKR2 stably overexpressed on HEK293T cells (HEK.mACKR2) (mouse) (UniProt O08707); assay: flow cytometry binding competition on HEK.mACKR2 cells, CCL5-AF647 (30 nM) as competitor
Sequence of murine ACKR2 stably overexpressed on HEK293T cells (HEK.mACKR2) (mouse) (O08707 whole entry): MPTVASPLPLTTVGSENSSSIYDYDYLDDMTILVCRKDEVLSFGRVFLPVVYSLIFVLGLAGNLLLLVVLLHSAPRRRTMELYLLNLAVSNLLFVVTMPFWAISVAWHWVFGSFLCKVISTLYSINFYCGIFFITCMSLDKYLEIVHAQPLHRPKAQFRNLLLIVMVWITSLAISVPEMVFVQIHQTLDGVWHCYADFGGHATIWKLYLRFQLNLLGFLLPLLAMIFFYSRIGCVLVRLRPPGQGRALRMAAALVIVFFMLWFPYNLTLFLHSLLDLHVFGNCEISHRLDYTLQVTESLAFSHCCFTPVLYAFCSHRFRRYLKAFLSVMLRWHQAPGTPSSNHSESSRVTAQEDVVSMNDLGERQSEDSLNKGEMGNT

[2] = target: T1, human ACKR2 stably expressed on HEK293T …; assay: flow cytometry, displacement of CXCL10-Cy5 from HEK.ACKR2 cells by unlabelled chemokine (50 nM)
Procedure: HEK293T and HEK-ACKR2 cells were incubated with CXCL10-Cy5 at indicated concentrations for 45 minutes at 37° C., then washed twice with FACS buffer (PBS, 1% BSA, 0.1% NaN₃). Dead cells were excluded using Zombie Green viability dye (BioLegend). ACKR2-negative HEK293T cells were used to evaluate non-specific binding of CXCL10-Cy5. For binding competition with unlabelled chemokines (50 nM), the signal obtained for CXCL10-Cy5 in the absence of unlabelled chemokines was used to define 100% binding. Ligand binding was quantified by mean fluorescence intensity on a BD FACS Fortessa cytometer (BD Biosciences).

Molecule	% displacement of CCL5-AF647 at 50 µg/ml antibody [1]	binding result [2]
polyclonal Goat anti-mACKR2 (ab1656, Abcam) (antibody)	> 80%	–
CCL5 (unlabelled, PeproTech) (ligand, human, UniProt P13501 24-91, looked up) SPYSSDTTPCCFAYIARPLPRAHIKEYFYTSGKCSNPAVVFVTRKNRQVCANPEKKWVREYINSLEMS	–	binds
